Where no end group is shown, it is not given here.
Biological target: the molecule itself
Assay: SEC

Protein	stoichiometry N
eAβPP_(290-624), His-Patch thioredoxin fusion (52-kDa) (domain or fragment, human, UniProt P05067-4 290-624, looked up) PTTAASTPDAVDKYLETPGDENEHAHFQKAKERLEAKHRERMSQVMREWEEAERQAKNLPKADKKAVIQHFQEKVESLEQEAANERQQLVETHMARVEAMLNDRRRLALENYITALQAVPPRPRHVFNMLKKYVRAEQKDRQHTLKHFEHVRMVDPKKAAQIRSQVMTHLRVIYERMNQSLSLLYNVPAVAEEIQDEVDELLQKEQNYSDDVLANMISEPRISYGNDALMPSLTETKTTVELLPVNGEFSLDDLQPWHSFGADSVPANTENEVEPVDARPAADRGLTTRPGSGLTNIKTEEISEVKMDAEFRHDSGYEVHHQKLVFFAEDVGSNK	~2
LTTRPGSGLTNIKTEEISEVKMDAEFRHDSGYEVHHQKLVFFAEDVGSNK (domain or fragment, human, UniProt P05067-4 575-624, looked up, also: His-Patch thioredoxin fusion (20 kDa), side not given here) [eAβPP_(575-624), His-Patch thioredoxin fusion (20-kDa)]	~2

From PMC4001850 (Journal of Alzheimer's disease : JAD, 2011)
